Assay [1] deals with T1, cytochrome CYP11A1 (P450scc) (bovine, UniProt P00189 40-520).
T1 construct: The same protein was used either untreated (oligomeric, non-monomerized) or after incubation with 4-12% Emulgen 913 (monomerized); the assays tell the two states apart; also called CYP11A1mon; monomerized CYP11A1; source: isolated from bovine adrenal glands
T1 sequence (looked up): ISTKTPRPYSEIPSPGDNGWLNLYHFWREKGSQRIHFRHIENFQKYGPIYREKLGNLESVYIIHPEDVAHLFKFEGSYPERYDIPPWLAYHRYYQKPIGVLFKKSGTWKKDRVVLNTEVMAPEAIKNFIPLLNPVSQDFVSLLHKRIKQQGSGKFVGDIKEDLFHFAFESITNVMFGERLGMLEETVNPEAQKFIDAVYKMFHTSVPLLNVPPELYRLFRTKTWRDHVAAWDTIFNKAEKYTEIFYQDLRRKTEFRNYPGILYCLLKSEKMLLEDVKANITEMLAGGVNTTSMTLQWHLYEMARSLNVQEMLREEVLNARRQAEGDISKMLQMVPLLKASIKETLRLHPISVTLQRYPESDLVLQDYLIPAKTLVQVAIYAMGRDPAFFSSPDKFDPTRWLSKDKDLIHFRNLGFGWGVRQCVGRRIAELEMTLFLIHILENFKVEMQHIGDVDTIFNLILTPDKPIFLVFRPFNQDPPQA
The assay can be described thus: SPR; Biacore 3000; about 400 RU Ad coupled by EDC/NHS to a CM5 chip; oligomeric (non-monomerized) CYP11A1 injected at 1-100 nM; 50 mM potassium phosphate pH 7.4 with 1% Emulgen 913; 1:1 Langmuir model. Particulars: both partners purified. On the technique in general: In SPR one partner is held on a chip, and binding of the other changes the refractive index at the surface.

Assay [2] deals with T1, cytochrome CYP11A1 (P450scc). The assay can be described thus: SPR; Biacore 3000; about 400 RU Ad coupled by EDC/NHS to a CM5 chip; monomeric (Emulgen 913-monomerized) CYP11A1 injected at 1-100 nM; 50 mM potassium phosphate pH 7.4 with 1% Emulgen 913; 1:1 Langmuir model. Particulars: both partners purified.

B1: adrenodoxin (natural protein, UniProt P00257 59-186, looked up)
chain: SSSEDKITVHFINRDGETLTTKGKIGDSLLDVVVQNNLDIDGFGACEGTLACSTCHLIFEQHIFEKLEAITDEENDMLDLAYGLTDRSRLGCQICLTKAMDNMTVRVPDAVSDARESIDMGMNSSKIE
notes: adrenodoxin (Ad), recombinant; source: E. coli BL21DE3, purified after sonification
Usually Kd stands for a measure of binding affinity in units of concentration. A high value points to weaker binding. One may read the koff as the first-order rate constant of dissociation. A high value points to a short-lived complex. For orientation: kon means a measure of how fast the partners come together. Lower therefore signals slow association. For B1, in assay [1], the affinity, expressed as Kd, was 210 ± 20 nM; the dissociation rate constant (koff) is 0.09 ± 0.009 s⁻¹; the kon was 420000 M⁻¹ s⁻¹. In assay [2], this molecule showed a dissociation constant (Kd) of 170 ± 15 nM, a koff of 0.05 ± 0.005 s⁻¹ and an on-rate constant (kon) of 290000 M⁻¹ s⁻¹.

Source of the values: publication PMC3212078, “Atomic Force Microscopy Study of Protein–Protein Interactions in the Cytochrome CYP11A1 (P450scc)-Containing Steroid Hydroxylase System” (Nanoscale Research Letters, 2010).
